First the molecules themselves.
B1: ZNF263 (parent)
chain: CSECGESFSRSSRLMSHQRTHTG
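Also: lentivirally expressed fusions sorted by FACS into six bins by GFP to DsRed ratio, PSI derived from sequencing read proportions per bin multiplied by bin number.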

Variants of B1 are the subject of this data set. The data set is described as follows: protein stability index of a GFP-peptide fusion (GPS, HEK-293T) (PSI 1-6); higher = more stable. Particulars: c terminus: native.
Turning to CSECGESFSRISRLMSHQRTHTG [S11I], the protein stability index stood at 3.98. Under CSECGESFSRCSRLMSHQRTHTG [S11C] stands 3.34. Under CSECGESFSRHSRLMSHQRTHTG [S11H] stands 3.47; under CSECGESFSRDSRLMSHQRTHTG [S11D], 2.1. CSECGESFSRKSRLMSHQRTHTG [S11K]: the protein stability index came out at 3.55. Under CSECNESFSRSSRLMSHQRTHTG [G5N] stands 2.2. Under CSECPESFSRSSRLMSHQRTHTG [G5P] stands 1.89; under CSECHESFSRSSRLMSHQRTHTG [G5H], 1.64.

Turning to CSECLESFSRSSRLMSHQRTHTG [G5L], the protein stability index came out at 1.92. On to CSECTESFSRSSRLMSHQRTHTG [G5T], for which the protein stability index was 2.3.

For CSECIESFSRSSRLMSHQRTHTG [G5I], the protein stability index is 2.23. With CSECKESFSRSSRLMSHQRTHTG [G5K], the protein stability index amounted to 1.29.

Take CSECCESFSRSSRLMSHQRTHTG [G5C]: the protein stability index came out at 2.33. Under CSECDESFSRSSRLMSHQRTHTG [G5D] stands 1.79; under CSECEESFSRSSRLMSHQRTHTG [G5E], 1.41; under CSECSESFSRSSRLMSHQRTHTG [G5S], 1.69.

Turning to CSECVESFSRSSRLMSHQRTHTG [G5V], the protein stability index turned out to be 1.03.

Regarding CSECWESFSRSSRLMSHQRTHTG [G5W], the protein stability index was 1.88. In the case of CSECYESFSRSSRLMSHQRTHTG [G5Y] it was 2.33; in that of CSECFESFSRSSRLMSHQRTHTG [G5F], 3.91; in that of CSECAESFSRSSRLMSHQRTHTG [G5A], 2.77.

Turning to CSECQESFSRSSRLMSHQRTHTG [G5Q], the protein stability index was found to be 2.03.

On to CSECRESFSRSSRLMSHQRTHTG [G5R], for which the protein stability index is 1.4. Under CSECGESFSLSSRLMSHQRTHTG [R10L] stands 3.71; under CSECGESFSGSSRLMSHQRTHTG [R10G], 2.95; under CSECGESFSESSRLMSHQRTHTG [R10E], 5.27. Turning to CSECGESFSVSSRLMSHQRTHTG [R10V], the protein stability index is 3.48. Turning to CSECGESFSKSSRLMSHQRTHTG [R10K], the protein stability index is 2.68. Turning to CSECGESFSQSSRLMSHQRTHTG [R10Q], the protein stability index was 3.85.

For the variant CSECGESFSNSSRLMSHQRTHTG [R10N], the protein stability index came out at 4.99.

With CSECGESFSPSSRLMSHQRTHTG [R10P], the protein stability index is 2.

As to CSECGESFSCSSRLMSHQRTHTG [R10C], the protein stability index was determined as 4.11. In the case of CSECGESFSSSSRLMSHQRTHTG [R10S] it was 5.28; in that of CSECGESFSWSSRLMSHQRTHTG [R10W], 1.15. CSECGESFSDSSRLMSHQRTHTG [R10D]: the protein stability index was determined as 5.6. Under CSECGESFSMSSRLMSHQRTHTG [R10M] stands 3.62; under CSECGESFSTSSRLMSHQRTHTG [R10T], 5.16. Under CSECGESFSISSRLMSHQRTHTG [R10I] stands 2.95. In the case of CSECGESFSHSSRLMSHQRTHTG [R10H] it was 4.29; in that of CSECGESFSYSSRLMSHQRTHTG [R10Y], 2.83; in that of CSECGESFSASSRLMSHQRTHTG [R10A], 2.98. As to CSECGESFSFSSRLMSHQRTHTG [R10F], the protein stability index came out at 2.51. In the case of CSECGEGFSRSSRLMSHQRTHTG [S7G] it was 2.35. Under CSECGEQFSRSSRLMSHQRTHTG [S7Q] stands 3.41; under CSECGENFSRSSRLMSHQRTHTG [S7N], 2.64.

Turning to CSECGEKFSRSSRLMSHQRTHTG [S7K], the protein stability index amounted to 2.72. In the case of CSECGEEFSRSSRLMSHQRTHTG [S7E] it was 3.51; in that of CSECGEWFSRSSRLMSHQRTHTG [S7W], 3.75.

For the variant CSECGEAFSRSSRLMSHQRTHTG [S7A], the protein stability index is 2.94.

On to CSECGECFSRSSRLMSHQRTHTG [S7C], for which the protein stability index was found to be 2.67. In the case of CSECGEYFSRSSRLMSHQRTHTG [S7Y], the protein stability index came to 3.8. Consider CSECGEDFSRSSRLMSHQRTHTG [S7D], for which the protein stability index stood at 1.84. In the case of CSECGEHFSRSSRLMSHQRTHTG [S7H], the protein stability index is 2.58.

CSECGEVFSRSSRLMSHQRTHTG [S7V]: the protein stability index came to 4.13. In the case of CSECGEMFSRSSRLMSHQRTHTG [S7M] it was 3.59; in that of CSECGERFSRSSRLMSHQRTHTG [S7R], 2.33; in that of CSECGETFSRSSRLMSHQRTHTG [S7T], 3.69.

For the variant CSECGEPFSRSSRLMSHQRTHTG [S7P], the protein stability index was 2.63. In the case of CSECGELFSRSSRLMSHQRTHTG [S7L] it was 3.6; in that of CSECGEIFSRSSRLMSHQRTHTG [S7I], 3.88; in that of CSCCGESFSRSSRLMSHQRTHTG [E3C], 1.8. In the case of CSKCGESFSRSSRLMSHQRTHTG [E3K] it was 2.68; in that of CSWCGESFSRSSRLMSHQRTHTG [E3W], 3.35. In the case of CSQCGESFSRSSRLMSHQRTHTG [E3Q] it was 3.33; in that of CSHCGESFSRSSRLMSHQRTHTG [E3H], 2.56. With CSFCGESFSRSSRLMSHQRTHTG [E3F], the protein stability index stood at 3.31. Under CSVCGESFSRSSRLMSHQRTHTG [E3V] stands 4.21; under CSTCGESFSRSSRLMSHQRTHTG [E3T], 3.74.

CSSCGESFSRSSRLMSHQRTHTG [E3S]: the protein stability index turned out to be 1.87. In the case of CSICGESFSRSSRLMSHQRTHTG [E3I] it was 4.09; in that of CSYCGESFSRSSRLMSHQRTHTG [E3Y], 3.54. In the case of CSDCGESFSRSSRLMSHQRTHTG [E3D] it was 2.67; in that of CSPCGESFSRSSRLMSHQRTHTG [E3P], 1.33. Under CSLCGESFSRSSRLMSHQRTHTG [E3L] stands 2.9; under CSACGESFSRSSRLMSHQRTHTG [E3A], 2.37; under CSNCGESFSRSSRLMSHQRTHTG [E3N], 2.58.

Take CSMCGESFSRSSRLMSHQRTHTG [E3M]: the protein stability index came out at 2.26.

As for CSGCGESFSRSSRLMSHQRTHTG [E3G], the protein stability index was determined as 1.71. In the case of CSRCGESFSRSSRLMSHQRTHTG [E3R], the protein stability index amounted to 2.12. In the case of CSECGVSFSRSSRLMSHQRTHTG [E6V] it was 2.97. In the case of CSECGLSFSRSSRLMSHQRTHTG [E6L], the protein stability index worked out at 3.22. Under CSECGPSFSRSSRLMSHQRTHTG [E6P] stands 1.92.

Take CSECGFSFSRSSRLMSHQRTHTG [E6F]: the protein stability index is 1.61. Under CSECGISFSRSSRLMSHQRTHTG [E6I] stands 2.15. In the case of CSECGRSFSRSSRLMSHQRTHTG [E6R] it was 3.9; in that of CSECGTSFSRSSRLMSHQRTHTG [E6T], 1.76. In the case of CSECGCSFSRSSRLMSHQRTHTG [E6C] it was 2.52. In the case of CSECGMSFSRSSRLMSHQRTHTG [E6M], the protein stability index came to 3.42. Under CSECGYSFSRSSRLMSHQRTHTG [E6Y] stands 1.56. Under CSECGQSFSRSSRLMSHQRTHTG [E6Q] stands 2.96; under CSECGHSFSRSSRLMSHQRTHTG [E6H], 2.05. With CSECGKSFSRSSRLMSHQRTHTG [E6K], the protein stability index is 3.25. In the case of CSECGDSFSRSSRLMSHQRTHTG [E6D] it was 1.89; in that of CSECGWSFSRSSRLMSHQRTHTG [E6W], 2.02. Under CSECGASFSRSSRLMSHQRTHTG [E6A] stands 3.66; under CSECGSSFSRSSRLMSHQRTHTG [E6S], 2.94. Regarding CSECGNSFSRSSRLMSHQRTHTG [E6N], the protein stability index amounted to 1.73.

The values are drawn from the supplement of paper PMC10567573.
